Test results taken from PMC3460868, “Crosstalk of Escherichia coli FadR with Global Regulators in Expression of Fatty Acid Transport Genes”.

Tests used:
Conditions in all cases: protein: recombinant; tags: His6 (pET28); chain copies: 2; label: DIG-ddUTP 3' (terminal transferase); blunt
CRP = CRP (Escherichia coli, UniProt P0ACJ8 1-210); test: EMSA; cAMP (200 pmol in 20 ul); Roche binding buffer (composition not given), 15 min, room temperature; FadR: 0.1 pmol probe in 10 ul, 0-10 pmol protein, 7% native PAGE; CRP: 0.6 pmol probe in 20 ul (legend; Methods say 0.1 or 0.2 pmol), 5-20 pmol protein, 6.5% native PAGE
FadR [1] = molecular target: T1, FadR (Escherichia coli, UniProt P0A8V6 1-239); test: EMSA; affinity comparable to the fadL sites; Roche binding buffer (composition not given), 15 min, room temperature; FadR: 0.1 pmol probe in 10 ul, 0-10 pmol protein, 7% native PAGE; CRP: 0.6 pmol probe in 20 ul (legend; Methods say 0.1 or 0.2 pmol), 5-20 pmol protein, 6.5% native PAGE
FadR [2] = molecular target: T1, FadR; test: EMSA; essentially complete binding by 50 nM FadR; Roche binding buffer (composition not given), 15 min, room temperature; FadR: 0.1 pmol probe in 10 ul, 0-10 pmol protein, 7% native PAGE; CRP: 0.6 pmol probe in 20 ul (legend; Methods say 0.1 or 0.2 pmol), 5-20 pmol protein, 6.5% native PAGE

Sequence of CRP (P0ACJ8 whole entry): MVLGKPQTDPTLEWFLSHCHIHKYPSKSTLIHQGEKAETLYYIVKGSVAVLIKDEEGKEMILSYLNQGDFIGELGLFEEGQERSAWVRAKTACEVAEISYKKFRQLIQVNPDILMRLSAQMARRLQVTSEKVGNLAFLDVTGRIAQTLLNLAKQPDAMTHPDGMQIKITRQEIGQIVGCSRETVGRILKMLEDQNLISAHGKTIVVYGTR
T1 sequence (P0A8V6 whole entry): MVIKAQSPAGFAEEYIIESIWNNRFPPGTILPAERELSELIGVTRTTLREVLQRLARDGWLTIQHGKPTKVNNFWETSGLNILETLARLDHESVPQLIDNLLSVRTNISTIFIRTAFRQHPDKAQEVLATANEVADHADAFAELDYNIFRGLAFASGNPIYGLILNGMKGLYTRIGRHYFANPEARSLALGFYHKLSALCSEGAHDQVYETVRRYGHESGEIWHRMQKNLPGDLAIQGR

| Binder | binding result (CRP) | further results |
| --- | --- | --- |
| fadD CRP site (dsDNA) DNA 1: GTAAAGATAAAAATAAATAGTGACGCGCTTCGCAACCTTTTCGTTGGG DNA 2: CCCAACGAAAAGGTTGCGAAGCGCGTCACTATTTATTTTTATCTTTAC | binds | – |
| fadD FadR site 1 (dsDNA) DNA 1: GTAATTATCAAGCTGGTATGATGAGTTAATATTATG DNA 2: CATAATATTAACTCATCATACCAGCTTGATAATTAC | – | binding result (FadR [1]): binds |
| fadH CRP site 1 (probe 1) (dsDNA) DNA 1: GTAACCTGGATAAAACGCGACAAGCGTCGCATCCGGCGTTATCACCGG DNA 2: CCGGTGATAACGCCGGATGCGACGCTTGTCGCGTTTTATCCAGGTTAC | binds | – |
| fadL CRP site 2 (probe 2) (dsDNA) DNA 1: CCCTACACTTCGCGCTCCTGTTACAGCACGTAACATAGTTTGTATAAAAATAAATC DNA 2: GATTTATTTTTATACAAACTATGTTACGTGCTGTAACAGGAGCGCGAAGTGTAGGG | no binding | – |
| fadH CRP site 2 (probe 2) (dsDNA) DNA 1: CACCGGGCGTATTCTTTTTGAATCCCATCACAAACCCCGCACTCC DNA 2: GGAGTGCGGGGTTTGTGATGGGATTCAAAAAGAATACGCCCGGTG | binds | – |
| fadL FadR site 1 (dsDNA) DNA 1: GCAACATTCCAGCTGGTCCGACCTATACTCTCGCC DNA 2: GGCGAGAGTATAGGTCGGACCAGCTGGAATGTTGC | – | binding result (FadR [2]): binds |
| fadL FadR site 2 (dsDNA) DNA 1: CTCTCGCCACTGGTCTGATTTCTAAGATGTACCTC DNA 2: GAGGTACATCTTAGAAATCAGACCAGTGGCGAGAG | – | binding result (FadR [2]): binds |
